Test results reported in patent publication US20060251655A1.

B1: W808stop (C-terminal deletion variant of ADAMTS-13, FLAG appended) (protein)
chain: PSHFQQSCLQALEPQAVSSYLSPGAPLKGRPPSPGFQRQRQRQRRAAGGILHLELLVAVGPDVFQAHQEDTERYVLTNLNIGAELLRDPSLGAQFRVHLVKMVILTEPEGAPNITANLTSSLLSVCGWSQTINPEDDTDPGHADLVLYITRFDLELPDGNRQVRGVTQLGGACSPTWSCLITEDTGFDLGVTIAHEIGHSFGLEHDGAPGSGCGPSGHVMASDGAAPRAGLAWSPCSRRQLLSLLSAGRARCVWDPPRPQPGSAGHPPDAQPGLYYSANEQCRVAFGPKAVACTFAREHLDMCQALSCHTDPLDQSSCSRLLVPLLDGTECGVEKWCSKGRCRSLVELTPIAAVHGRWSSWGPRSPCSRSCGGGVVTRRRQCNNPRPAFGGRACVGADLQAEMCNTQACEKTQLEFMSQQCARTDGQPLRSSPGGASFYHWGAAVPHSQGDALCRHMCRAIGESFIMKRGDSFLDGTRCMPSGPREDGTLSLCVSGSCRTFGCDGRMDSQQVWDRCQVCGGDNSTCSPRKGSFTAGRAREYVTFLTVTPNLTSVYIANHRPLFTHLAVRIGGRYVVAGKMSISPNTTYPSLLEDGRVEYRVALTEDRLPRLEEIRIWGPLQEDADIQVYRRYGEEYGNLTRPDITFTYFQPKPRQAWVWAAVRGPCSVSCGAGLRWVNYSCLDQARKELVETVQCQGSQQPPAWPEACVLEPCPPYWAVGDFGPCSASCGGGLRERPVRCVEAQGSLLKTLPPARCRAGAQQPAVALETCNPQPCPARWDYKDDDDK
B2: W897stop (C-terminal deletion variant of ADAMTS-13, FLAG appended) (protein)
chain: PSHFQQSCLQALEPQAVSSYLSPGAPLKGRPPSPGFQRQRQRQRRAAGGILHLELLVAVGPDVFQAHQEDTERYVLTNLNIGAELLRDPSLGAQFRVHLVKMVILTEPEGAPNITANLTSSLLSVCGWSQTINPEDDTDPGHADLVLYITRFDLELPDGNRQVRGVTQLGGACSPTWSCLITEDTGFDLGVTIAHEIGHSFGLEHDGAPGSGCGPSGHVMASDGAAPRAGLAWSPCSRRQLLSLLSAGRARCVWDPPRPQPGSAGHPPDAQPGLYYSANEQCRVAFGPKAVACTFAREHLDMCQALSCHTDPLDQSSCSRLLVPLLDGTECGVEKWCSKGRCRSLVELTPIAAVHGRWSSWGPRSPCSRSCGGGVVTRRRQCNNPRPAFGGRACVGADLQAEMCNTQACEKTQLEFMSQQCARTDGQPLRSSPGGASFYHWGAAVPHSQGDALCRHMCRAIGESFIMKRGDSFLDGTRCMPSGPREDGTLSLCVSGSCRTFGCDGRMDSQQVWDRCQVCGGDNSTCSPRKGSFTAGRAREYVTFLTVTPNLTSVYIANHRPLFTHLAVRIGGRYVVAGKMSISPNTTYPSLLEDGRVEYRVALTEDRLPRLEEIRIWGPLQEDADIQVYRRYGEEYGNLTRPDITFTYFQPKPRQAWVWAAVRGPCSVSCGAGLRWVNYSCLDQARKELVETVQCQGSQQPPAWPEACVLEPCPPYWAVGDFGPCSASCGGGLRERPVRCVEAQGSLLKTLPPARCRAGAQQPAVALETCNPQPCPARWEVSEPSSCTSAGGAGLALENETCVPGADGLEAPVTEGPGSVDEKLPAPEPCVGMSCPPGWGHLDATSAGEKAPSPWGSIRTGAQAAHVWDYKDDDDK
B3: W746stop (C-terminal deletion variant of ADAMTS-13, FLAG appended) (protein)
chain: PSHFQQSCLQALEPQAVSSYLSPGAPLKGRPPSPGFQRQRQRQRRAAGGILHLELLVAVGPDVFQAHQEDTERYVLTNLNIGAELLRDPSLGAQFRVHLVKMVILTEPEGAPNITANLTSSLLSVCGWSQTINPEDDTDPGHADLVLYITRFDLELPDGNRQVRGVTQLGGACSPTWSCLITEDTGFDLGVTIAHEIGHSFGLEHDGAPGSGCGPSGHVMASDGAAPRAGLAWSPCSRRQLLSLLSAGRARCVWDPPRPQPGSAGHPPDAQPGLYYSANEQCRVAFGPKAVACTFAREHLDMCQALSCHTDPLDQSSCSRLLVPLLDGTECGVEKWCSKGRCRSLVELTPIAAVHGRWSSWGPRSPCSRSCGGGVVTRRRQCNNPRPAFGGRACVGADLQAEMCNTQACEKTQLEFMSQQCARTDGQPLRSSPGGASFYHWGAAVPHSQGDALCRHMCRAIGESFIMKRGDSFLDGTRCMPSGPREDGTLSLCVSGSCRTFGCDGRMDSQQVWDRCQVCGGDNSTCSPRKGSFTAGRAREYVTFLTVTPNLTSVYIANHRPLFTHLAVRIGGRYVVAGKMSISPNTTYPSLLEDGRVEYRVALTEDRLPRLEEIRIWGPLQEDADIQVYRRYGEEYGNLTRPDITFTYFQPKPRQAWVWAAVRGPCSVSCGAGLRWVNYSCLDQARKELVETVQCQGSQQPPAWPEACVLEPCPPYWDYKDDDDK

These proteins were tested against von Willebrand factor (vWF), prepared from plasma cryo fraction, P04275.
For B1, the “vWF cleaving activity (SDS-PAGE)” value was “vWF cleaving activity was clearly recognized from the full-length molecule to W688stop molecule”. In the case of B2, the “vWF cleaving activity (SDS-PAGE)” value is reported as “vWF cleaving activity was clearly recognized from the full-length molecule to W688stop molecule”. In the case of B3, the “vWF cleaving activity (SDS-PAGE)” value is reported as “vWF cleaving activity was clearly recognized from the full-length molecule to W688stop molecule”.
